Measurements reported in the supplement of paper PMC12764529.
± gives the half width of the 95% confidence interval.

Assay: folding stability dG unfold (combined trypsin and chymotrypsin); higher = more stable
Protocol: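 Folding stability of de novo designed mini-proteins (<80 aa, no Cys; designed by TrROS, TrMRF, ProteinMPNN and the joint model) was measured by cDNA display proteolysis with trypsin and chymotrypsin. Each protease was used at 11 concentrations in a threefold dilution series plus a no-protease condition. K50 was inferred by Bayesian fitting of sequencing counts, and dG unfold was derived against a sequence-predicted unfolded-state K50 (Tsuboyama et al. method). Sequences shown include variable-length N-terminal GS-type padding (SAGGSAGG...) inside a display construct carrying a PA tag. Rows were kept only if the AF2 dimer inter-PAE was >15, to exclude likely homo-oligomers.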

Sequence	folding stability dG unfold [kcal/mol]
EPNYLVQIEIEPRMYQKDEDGKPLKPQPMKQPFFGPADDPEQVKDNLRDNFGPEVEIDEVMPLEDINEGQFS [r1_493_TrROS]	< -1
NWVVWAKLTNPEEGERKTYEVPVPPGEEPTEEEILDQAKDMLGRPKEDLRKNVEIEPYPENGWAEIEIRIRS [r1_285_TrROS]	< -1
PDDPEEQREQMPPIPPEWAEELARKFAEKLGDEEVTEVEVDDITPNGYIEVEIENPDGGEVKIEIPMDDIMS [r1_435_TrROS]	< -1
SAAEWLKEEGLKVKDVEVTKPRENPNGKREMEYRIKVRLPNKKVEVPIRMPSDSPETALNMAHNILRELSAG [r14_726_TrROS]	< -1
SAELVLASVEKKGDEVIAVTAFPDGLFVKVKTKDGKIFAAPLPAENIGPQVEALKKAFPGVEVEPFLAESAG [r14_528_TrMRF]	< -1
SAGGANAKDVKRDGNNIQITFDGQILFKIQPPKPVPPVRVRHPDGKEHHAPLEDLKKENPDNWEIEPPSAGG [r13_802_TrROS]	< -1
SAGGASVPVEPRLDASGRERVRATLEIRPTLPNGTRTSRAVPVEFASRAELRAFIAARAPTADAVLLSAGGS [r16_652_JUSTAS]	< -1
SAGGDDFRVERFHPGEPREPREIDGDADDLLEELPPNDSYVHIEFKDDGGKKRIQMDTPEDLKNFIRDSAGG [r13_299_TrROS]	< -1
SAGGDKKKKEVEFRFPGMPFRVSIQVDPDEGKIPIEIYNPDNGQSLDDLKSNPAMQQMVREAANALKSAGGS [r16_96_TrROS]	< -1
SAGGDPDWKPIEFNLQRTVKPGDPEQIEEKAREFFEMFGIKSVTDVERERNPEGQQTVQASVKIRFPDSAGG [r13_222_TrROS]	< -1
SAGGDWIPFRIKQYDPKDGKPKREWPIQYNPEDGMMQIRPPDGKKHEFPMPMQEILENLPPGFEIEPSAGGS [r16_543_TrROS]	< -1
SAGGEKVPLKIRDPDNGNPHEFDKIESIDSVEMQKPPDNRQQYSIRFPGDGRPIMIDDPEDIEEALKSAGGS [r8_206_TrROS]	< -1
SAGGGMNEPVPKVTVTTTSVSVEPPPDLPGIAKVYTPTVITTDDEAVAEAIAEEIAAQPDVEYEDTGASAGG [r13_606_JUSTAS]	< -1
SAGGGPEVVETVETPATETEVSRLPNGELLVTTTTQVTTFVRVGDELRRERVETVTTTEIVSPEELGSAGGS [r16_109_JUSTAS]	< -1
SAGGGSIEDSNLSEEEIKEILSKLPEPVTVTVKRKEVKKVTYFENGKVKEEKIVEKEKTEVYYFPPKKSAGG [r13_632_JUSTAS]	< -1
SAGGGSKIIEVPVIVEPDEDLGKVAEEIAKKIFPENEKVIVKVEKFENSYRIEIFNPEDGKPIIEGEGSAGG [r13_724_TrMRF]	< -1
SAGGGVSYSFSSSGSGSTVTIYIPGSGKTLKRKVNPNDTITDIPSSAKPYKVVKEVNDEKPVEEELGSAGGS [r8_487_JUSTAS]	-0.855 ± 0.72
SAGGIMFDSPEEAEELADNGRIKPVNRGKQKHKDNGKEREHEMYMVKIKDPEDNKPVQVMIPADQIRSAGGS [r16_271_TrROS]	< -1
SAGGKIGQEVDPGEPITIPIVKRDGDNPKKEKINFRLPPGMRIRPKDDNIMIRFPGNGQEQTIPLKDLSAGG [r13_275_TrROS]	< -1

Sequence	folding stability dG unfold [kcal/mol]
SAGGKNPEENDPEYQKPPKIPSRTIPFPAEQALAWAKELPGFDNIMVEAGGKWVEIDLDDGKIEPYGSAGGS [r16_214_TrROS]	< -1
SAGGKPPKIKIKVEHEPYPGNGRYYMEVELEDPDDGKPIEIPFRGDSPEEAEENAKEIAREIAKELKSAGGS [r8_480_TrROS]	< -1
SAGGLPSPDAVVEEESLELSFESSSEVVVTKKKTTKKVLPNGKVETETEEEEEVVKATKEEIEKLKKESAGG [r13_544_JUSTAS]	< -1
SAGGLTITVTPSVSENEVVVPGTGKPRFPEPRETYTVTVTPAPDVSLEEVAAEIREKFPGRGYTLTPSAGGS [r8_30_JUSTAS]	< -1
SAGGMDDVIRKALEEATPPLEVKEELILTTEPTPRGTVITKTTRPIIKSPEPGTFVPEPVEVVPAALLSAGG [r19_11_JUSTAS]	< -1
SAGGMDPAEAREIAKEIMKKFEENGRPYYAKITIRPDPKIQDIDIMPPGEPLEPRADPGQRTIMFRFPSAGG [r13_693_TrROS]	< -1
SAGGMELKVVTLEATSGRREDAGLVPAALEEGARELALAHPELRILGADMEVEPLGEEYVARIPLVVGSAGG [r13_305_TrMRF]	< -1
SAGGMITTEREVEVPPDELDEVIERLKAEVAAQPLEPAEDIKILEIEEKEEKAVIKYKVTAKVEGEKLLSAG [r5_575_JUSTAS]	< -1
SAGGMKAEIVNPNLSPEELKELILKAPEAKDVDIEVKKTSAKGAVSAKITTKSEKEAETIKKAVEEAVSAGG [r13_580_JUSTAS]	< -1
SAGGMLRTVKTEKYSDGTVVEPVADAAGNVTYTIVKKRKKVFDGDKVYYSEPVTIFKNGVKVEEKNISSAGG [r13_1007_JUSTAS]	< -1
SAGGMNMYLRVEQYRKKPNGEPEKRELSIPFPPNEPVEEIADELQKDNPYIKVEIYSPGTGKQQTITISAGG [r13_663_TrROS]	< -1
SAGGMPPSFVVEEEKTVEGTSTVTLRKITNPSSSEDMLSEIVTPPDGSVTLILKKDNIIEVIPSSELSAGGS [r16_49_JUSTAS]	< -1
SAGGMPVVTPTTSTEPLPGGRAATVTTYTPPDGLVRQEVTLPPERRLFRLIDPATGEVVEKEEAELESAGGS [r16_735_JUSTAS]	< -1
SAGGMRIPLKQIKDVNHQPPPGNGYPMVTVKVRDGGKPHTHTIPNNMNWEEAKRMVEEALDEGPIEIESAGG [r13_225_TrROS]	< -1
SAGGMSPDATITENLVTDSEEEALAKLLADPSVAEVKPLGVKPDKTKEGKPVIIVPVELRIPADGVRLSAGG [r19_221_JUSTAS]	< -1
SAGGMTIDSPEEAVQAIEDNPDKPLTLLVPTDPSTGSVPEEVVQAFAEPGFPISRDPAGYWTITYPPSAGGS [r16_335_JUSTAS]	< -1
SAGGMTSTFRFSDSRGRLSVEKITPETGKVTVVEQGPSSPRRSTLNASPEEAFQQLKDANDFPASRLESAGG [r13_141_JUSTAS]	< -1
SAGGMVLSDVLPDGTVKPVSEEKIKEIVEKIEKEINAKIEVKIEKKWEGDKWVTTIPVTLIGLSPKLISAGG [r13_790_JUSTAS]	< -1
SAGGMVVEEEPTKTVVEEVVPLPGGSPVRRITEEVLLPDGSVASRTTVFRPPGEREEETSLDPVPPEASAGG [r13_21_JUSTAS]	< -1

Sequence	folding stability dG unfold [kcal/mol]
SAGGNKTREREIPIPPGDSPDQAVDRVLEELEKHPDNNNVNINFRHPNGMPIKIRVTPNGKITEVEPYSAGG [r13_690_TrROS]	< -1
SAGGPGVEIVEVDPDGTLRVRAYDPATREPIAEAEIRIGALPVPPPVPGVPVLLADGELREVELPAALSAGG [r13_9_TrMRF]	< -1
SAGGPGYWRIKIYPKDTGKPHEFPIPLDQIRKVDPKNNKIEISFPNGPTIKIPDPEDIKAVQIEPWPSAGGS [r8_111_TrROS]	< -1
SAGGPKIEVDVKHQRTPDGMYRMRVTAVVPGNGRKIKITMPMPPDDPSPMPKMAKSIAKELANDPGLKSAGG [r13_968_TrROS]	< -1
SAGGPKIHIDRGPDYIRVKINGPDGKPIAPSTIPYEDPDNGEEEEVKIPIEELAQESGFPIEIEPYDSAGGS [r16_778_TrROS]	< -1
SAGGPMPPGQPVNIHIEIENPNGNERTIPVPGPVGDPDWFKEIAEKLKEEGWKIKKIHPGNGVIEIKSAGGS [r8_497_TrROS]	< -1
SAGGPMVTWRIKFPGKKIEVMWNPDQMNVNIYDPDKPKEVPIPMPPGEPPTADDILDELKKDGFKIEPSAGG [r13_687_TrROS]	< -1
SAGGPMWQVRLRDPDGKKRTINIQQTNGNMYVRIQDKDGEPVKEHPVDSAEEALDKLEDHGYKVEVYPSAGG [r13_315_TrROS]	< -1
SAGGPPIMLRIKHPGPDQREKIKEIAQDYPIEPVNPTPGEHEFRFNGPEQVNRLQDIAEKNGWKIEISAGGS [r16_88_TrROS]	< -1
SAGGPPKWKEVEFRMPPEDLKPDDIVDELQDDGIEIYNGDKPIDPGKSVDDLMQDNPNMPFTIKVWDSAGGS [r8_38_TrROS]	< -1
SAGGPSMSLSTRTVTLPVDPDTTEEEIKEALNREVKLPSPSTAIETPVEVEISPGPPVATVTLQVKILSSAG [r5_939_JUSTAS]	< -1
SAGGQKITIDNVTPGMIRIRVPNGNEFEFPEIQKELQEHGNNQPPTADQIAEWLRKRNFPIKDIEISDSAGG [r13_610_TrROS]	< -1
SAGGRPYKVKIKNPGSGKPYEMPIVDVHESDDNFYIMIQNPNGKNREAPLNNIDKAEVDEEGGTITLPSAGG [r13_211_TrROS]	< -1
SAGGSADMPMLPIEEIIDQLKEAKEANPNKKRTIEIPYPDGMPMQIEIDNDGKTKIEHPDGQWITISAGGSA [r15_73_TrROS]	< -1
SAGGSAGGIKPGQRVRVKLEQWSPNGEPQKHTFPIKNIPPGFKPGQELTFPGPGHKWRIDEITRSAGGSAGG [r6_561_TrROS]	< -1
SAGGSAGGMELVTLPVVTTEEVPVPPVTKTLPNGTRETVPQPPVTVVRETVLLTTPEEAAALLRSAGGSAGG [r6_120_JUSTAS]	< -1
SAGGSAGGMKKEKFGDSIRYTFPVDPNTSVEEIKKEIEKIPGVKDISKVKITPSPSNKLLVYVKSAGGSAGG [r6_516_JUSTAS]	< -1
SAGGSAGGMKVTFDDGVEETLNLTEEEAKAWAESRPDRKMTRIEKEPPEKLSPENLTPEAIKLKSAGGSAGG [r6_881_JUSTAS]	< -1
SAGGSAGGMPESAPPVPLPTSTVPLSEARAAGIEVPPGSERVIRTPSGVTYRISSATGTVTVVGSAGGSAGG [r6_275_JUSTAS]	< -1
